# Test results taken from the nanobody polyreactivity screen of Harvey et al. (2022).
# Assay: yeast display, Sf9 membrane polyspecificity reagent, FACS + sequencing; frameworks hold sequencing errors
# Procedure, shortened: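 In a synthetic yeast display library (Saccharomyces cerevisiae BJ5465), nanobody expression was induced with galactose for 36–48 hours. FACS gates were set low and high (top ~1%) using anti-HA fluorescence for expression and streptavidin fluorescence for binding of the Sf9 membrane reagent. Each polyreactivity label is drawn from the gate of origin.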
row,Sequence,polyreactivity (PSR sort gate)
1,QVQLVESGGGLVQAGGSLRLSCAASGSTFHRYTMGWYRQAPGKEWELVAAISWSGGSTYYADSVKGRFTISRDNAKNTVYLQMNSLKPEDTAVYYCAAVKPAEALDYWGQGTQVTVSS,high polyreactivity
2,QVQLVESGGGLVQAGGSLRLSCSASGLIFGNYAMGWYRQAPGKERELVAAITSTGITYYADSVKGRFTISRDNAKNTVYLQMNSLKPEDTAVYYCAAASRFHPDRGGYWGQGTQVTVSS,low polyreactivity
3,QVQLVESGGGLVQAGGSLRLSCAASGIILPVYAMGWYRPAPGKERELVAAIRWSSGRTYYADSVKGRFTISRDNAKNTVYLQMNSLKPEDTAVYYCAAYPSSEYDYWGQGTQVTVSS,low polyreactivity
4,QVQLVESGGGLVQAGGSLRLSCAASGSIFRNYAMGWYRQAPGKERELVARISYSGGRTHYADSVKGRFTISRDNAKNTVYFQMNSLNPEDTAVYYCAAPFHFTHFQGNYYWGQGTQVTVSS,low polyreactivity
5,QVQLVESGGGLVQAGGSLRLSCAASGFIVRNYAMGWYSQAPGKERELVASISRGTSTNYADSVKGRFTISRDNAKNTVYLQMNSLKPEDTAVYYCNKRFYYHPFDYWGQGTQVTVSS,high polyreactivity
6,QVQLVESGGGLVQAGGSLRLSCASSGIIYNQNTMGWYRQAPGKERELVAAITFSGGRTSYADSVKGRFTISRDNAKNTFYLQMNSLKPEDSAVYYCNKALWGLYGYWGHGTQVTVSS,low polyreactivity
7,QVQLVESGGGLVQAGGSLRLSCAASGFTFVDYAMGWYRQAPGKERELVAAISSSGDSTYYADSVKGRFTISRDNAKITVYLQMNSLKPEDTAVYYCAAEYDREEYSGYDYWGQGTQVTVSS,low polyreactivity
8,QVQLVESGGGLVQAGGSLRLSCAASGSNFFTNAMGGYRQAPGKERELVAVITKRGGSTYYADSVKGRFTISRDNAKNTVYIQMNSLKPEDTAVYYCAADARQWRYYYWGQGSQVTVSS,high polyreactivity
9,QVQLVESGGGLVQAGGSLRLSCAASGRTFRYYAMGWYRPAPGKERELVAAITSGGTSTYYADSVKGRFTISRDNAKNTVYLQMYSLKPEDTAVYYCAAGRRSYSFHNVVRGYDYWGQGTQVTVSS,high polyreactivity
10,QVQLVESGVGLVQAGGSLRLSCAASGRIFTLNAMGWYRQAPGKERELFAGISRTGGSTYYADSVKVRFPISRDNAKNTVYLQMNSLKPEDTAVYYCAAAGFRRQPGAGAYYYWGQGTQVTVSS,high polyreactivity
11,QVQLVESGGGLVQAGGSLRLTCAASGRTFGYYTMGWYRQAPGKERELVATISSDGTTNYADSVKGRFTISRDNAKNTVYLQMNSLKPEDTAVYYCNADFRLQYYYRIYDYWGQGTQVTVSS,low polyreactivity
12,QVQLVESGGGLVQAGGSLRLSCAASGSMFVRYAMGWYRQAPGKERELVAAISSDGNTYYADSVKGRFTISRDNAKNTVYLPRNSLKPEDTAVYYCAAKTRSRYYWGQGTQVTVSS,high polyreactivity
13,QVQLVESGGGLVQAGGSLRLSCAASGRTFVWYDMGWYRQAPGKERELVAAITKRGTSTYYADSVKGRFTISRDNGKNTVYLQMNRLKPEDTAVYYCAVEYIYWFHSRSSYIYDYWGQGTQVTVSS,low polyreactivity
14,QVQLVESGGGLVQAGGSLRVSCAASGISFGHYTMGWYRQATGKERELVATITTSGGRTYYADSVKGRFTISRDNAKNTVYLQMNSLKPEDTAVYYCATLSWYPFEYWGQGTQVTVSS,high polyreactivity
15,QVQLVESGGGLVQAGGSLRLSCAASGFTFVYYGMGWYRQAPGKERELVADISSGGNTYYADSVKGRFTISRDNAKNTVYLQMNSLKPEETAVYYCNKDARDEEGSSRTYDYWGQGTQVTVSS,low polyreactivity
16,QVQLVESGGRLVQAGGSLRLSCAASGFIFWSYAMGWYRQARGKERELVAAISWSGGRTYYADSVKGRFTISRDNAKNTVYLQMNSLKPEDTAVYYCAAVKRYSSQYPALDYWGQGTQVTVSS,high polyreactivity
17,QVQLVESGGGLVQAGGSLRLSCAASGIIFAYNAMGWYRQAPGKERELVATITDSGGSTSYADSVKGRFTISRDNAKNTVYLQMNSLKPEDTAVYYCAVLPVYWYWRNYVYLSGYDYWGQGTQVTVSS,low polyreactivity
